In paper PMC2752054:
Read-outs that look alike come from different tables or passages of the source.

Tests used:
[1] = target: T1, N-HisPurβ (Purine-rich element binding protein B) (UniProt O35295 1-324); assay: competition
T1 sequence: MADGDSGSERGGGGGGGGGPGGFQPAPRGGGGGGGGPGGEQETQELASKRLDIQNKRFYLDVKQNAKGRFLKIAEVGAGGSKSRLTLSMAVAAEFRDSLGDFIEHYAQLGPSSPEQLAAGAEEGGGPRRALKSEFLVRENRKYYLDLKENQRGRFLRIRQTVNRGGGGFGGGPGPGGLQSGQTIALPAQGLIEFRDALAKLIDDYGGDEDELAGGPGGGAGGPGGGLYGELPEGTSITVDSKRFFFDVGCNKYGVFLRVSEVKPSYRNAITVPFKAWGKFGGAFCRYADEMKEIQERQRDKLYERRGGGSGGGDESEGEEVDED

[2] = target: T1, N-HisPurβ (Purine-rich element binding …); assay: EMSA
[3] = target: T1, N-HisPurβ (Purine-rich element binding …); assay: competition; remark: listed apart in the source
[4] = target: T1, N-HisPurβ (Purine-rich element binding …); assay: competition; remark: listed apart in the source
[5] = target: T1, N-HisPurβ (Purine-rich element binding …); assay: competition; remark: listed apart in the source
[6] = target: T1, N-HisPurβ (Purine-rich element binding …); assay: competition; remark: listed apart in the source
[7] = target: T1, N-HisPurβ (Purine-rich element binding …); assay: competition; remark: listed apart in the source

B1: PE32-F (PE32-F*, PE32-bF, PE32-F-3FLC) (ssDNA)
DNA: GGGAGCAGAACAGAGGAATGCAGTGGAAGAGA
binding signal [1]: 1 fold IC50 (reference) | Kd [2]: ~0.3 nM

B2: PE32-F-3T7 (ssDNA)
DNA: GGGAGCAGAACAGAGGAATGCAGTTTTTTTTA
binding result [3]: binds

B3: PE32-F-3I5T7 (ssDNA)
DNA: TTTTTTTGAACAGTTTTTTTCAGTTTTTTTTA
binding result [4]: no binding

B4: dT32 (ssDNA)
DNA: TTTTTTTTTTTTTTTTTTTTTTTTTTTTTTTT
binding result [5]: no binding

B5: PE32-F-5T7 (ssDNA)
DNA: TTTTTTTGAACAGAGGAATGCAGTGGAAGAGA
binding signal [6]: ~4 fold IC50 increase vs PE32-F

B6: PE32-F-35T7 (ssDNA)
DNA: TTTTTTTGAACAGAGGAATGCAGTTTTTTTTA
binding signal [7]: > 50 fold IC50 increase vs PE32-F

B7: PE32-F-IT7 (ssDNA)
DNA: GGGAGCAGAACAGTTTTTTTCAGTGGAAGAGA
binding result [3]: binds
